Usually Kd stands for the equilibrium constant for the complex coming apart. Read a low Kd as higher affinity. Usually kon stands for a measure of how fast the partners come together.

For one substance, Kd and kon results are on record in patent US20230144436A1, “MUSCLE TARGETING COMPLEXES AND USES THEREOF FOR TREATING MYOTONIC DYSTROPHY” (Dyne Therapeutics, Inc., priority 2020, published 2023).

The target in the test is human transferrin receptor 1 (human) (UniProt P02786). Put plainly: Carterra LSA SPR array, IgG captured on anti-IgG lawn, hTfR1 as analyte, 25 C, 1:1 Langmuir fit.
Chain of human transferrin receptor 1 (human) (P02786 89-760 limits assumed): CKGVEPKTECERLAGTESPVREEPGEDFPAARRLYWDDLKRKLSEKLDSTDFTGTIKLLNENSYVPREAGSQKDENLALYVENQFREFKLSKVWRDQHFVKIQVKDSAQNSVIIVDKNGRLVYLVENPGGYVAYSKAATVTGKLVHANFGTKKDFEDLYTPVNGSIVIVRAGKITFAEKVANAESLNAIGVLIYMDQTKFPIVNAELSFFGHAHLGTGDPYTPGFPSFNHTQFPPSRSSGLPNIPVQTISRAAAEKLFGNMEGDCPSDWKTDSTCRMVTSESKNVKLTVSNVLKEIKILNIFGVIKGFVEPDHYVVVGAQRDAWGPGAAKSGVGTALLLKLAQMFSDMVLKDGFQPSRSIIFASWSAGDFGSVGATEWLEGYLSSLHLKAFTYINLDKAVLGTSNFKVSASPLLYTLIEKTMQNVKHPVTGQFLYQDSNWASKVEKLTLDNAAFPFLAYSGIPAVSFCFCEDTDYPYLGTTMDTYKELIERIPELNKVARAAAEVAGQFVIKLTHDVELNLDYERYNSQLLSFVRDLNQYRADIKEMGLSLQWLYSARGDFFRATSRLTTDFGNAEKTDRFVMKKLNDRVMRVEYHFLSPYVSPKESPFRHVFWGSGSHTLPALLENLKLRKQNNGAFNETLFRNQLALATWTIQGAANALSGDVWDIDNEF

Regarding OKT9 (antibody), the dissociation constant Kd amounted to 536 pM and the association rate constant (kon) was 774000 M⁻¹ s⁻¹.
